In the nanobody polyreactivity screen of Harvey et al. (2022):

Assay: yeast display, Sf9 membrane polyspecificity reagent, FACS + sequencing; frameworks hold sequencing errors
Summary of the method: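 Sorting gates, low and high (top ~1%), were placed on anti-HA fluorescence to track expression and on streptavidin fluorescence to track reagent binding. A clone's polyreactivity label is taken from the gate it came out of. The reagent was 10% biotinylated, detergent-solubilized Sf9 membrane, applied for 1 hour at 4 °C to galactose-induced yeast display cells.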

| Sequence | polyreactivity (PSR sort gate) |
| --- | --- |
| QVQLVESGGGLVQAGGSLRLSCAASGRTFQGYAMGWYRQATGKERELVAAISRSGGRTYYADSVKGRFTISRDNAKNTVYLQMNSLKPEDTAVYYCATDAFRDYGYWGQGTQVTVSS | high polyreactivity |
| QVQLVESGGGLVQAGGSLRLSCAASGRTFQGYVMGWYRQAPRKERELVAAISRGTSTYYADSVKGRFTISRDNAKYTVYLQMNSLKPEDTAVYYCAADGERRHYWGQGTQVTVSS | low polyreactivity |
| QVQLVESGGGLVQAGGSLRLSCAASGRTFQLNAMGWYRQAPGKERELFAAISTRGGSTYYADSVKGRFTISRDNAKNTVYLQMNSLKPEDTAVYYCATDPSFSRGYKEGGGYDYWGQGTQVTVSS | high polyreactivity |
| QVQLVESGGGLVQAGGSLRLSCAASGRTFQRNAMGWYRQAPGKERELVAAISWRGGSTYYADSVKGRFTISRDNAKNTVYLQMNSLKPEDTAVYYCNTYPSQYLWYDYWGQGTQVTVSS | high polyreactivity |
| QVQLVESGGGLVQAGGSLRLSCAASGRTFQTNAMGWYRQAPGKERELVAAISWSGGRTYYADSVKGRFTISRDNAKNTVYLQMNSLKPEDTAVYYCAARQWYRYKVRFDYWGQGTLVTVSS | high polyreactivity |
| QVQLVESGGGLVQAGGSLRLSCAASGRTFQTYAMGWYRQAPGKERELVAAISKSGGGTYYADSVKGRFTISRDNAKNTVYLQMNSLKPEDTAVYYCATAGYHYRAWGGRYDYWGQGTQVTVSS | high polyreactivity |
| QVQLVESGGGLVQAGGSLRLSCAASGRTFQVNAMGWYREAPGKERELVAAISIRSGRTYYADSVKGRFTISRYNAKNTVYLQMNSLKPEDTAVYYCAAYRISVYGVGYWGQGTQVTVSS | high polyreactivity |
| QVQLVESGGGLVQAGGSLRLSCAASGRTFQVNAMGWYRQAPGKERELVAAISRRGGSTYYADSVKGRFTISRDNAKNTVYLQMNSLKPEDTAVYYCAATASTYYLWRYNYWGQGTQVSVSS | high polyreactivity |
| QVQLVESGGGLVQAGGSLRLSCAASGRTFQYNAMGWYRQAPGKERELVAAISSSGGSTYYADSVKGRFTISRDNAKNTVYLQMNSLKPEDTAVYYCNAYSQSWNFYGDGDYWGQGTQVTVSS | low polyreactivity |
| QVQLVESGGGLVQAGGSLRLSCAASGRTFQYYAMGWYRQAPGKERELVAAISWSGASTYYADSVKGRFTISRDNAKNTVYLQMNSLKPEDTAVYYCAVKAGGSRYGYWGQGTHVTVSS | high polyreactivity |
| QVQLVESGGGLVQAGGSLRLSCAASGRTFRANAMGWYRQAPGKERELVAAISKRGGNTYYADSVKGRFTISRDNAKNTVYLQMNSLKPEDTAVYYCAADFIGRDYDYWGQGTQVTVSS | high polyreactivity |
| QVQLVESGGGLVQAGGSLRLSCAASGRTFRANAMGWYRQAPGKERELVAAISQRGGNTYYADSVKGRFTISRDKAKNTVYIQMNSLKPEDTAVYYCAADITTYRRGRYEYEYWGQGTQVTVSS | high polyreactivity |
| QVQLVESGGGLVQAGGSLRLSCAASGRTFRAYVMGWYRQAPGKERELVAAITGDGGSTYYADSVKGRFTISRDNAKNTVYLQMNSLKPEDTAVYYCAAGYVTVYGYYEYWGQGTQVTVSS | high polyreactivity |
| QVQLVESGGGLVQAGGSLRLSCAASGRTFRDNPMGWYRHAPGKERELVAAISGRGSSTYYADSVKGRFTIARDNAKKTVYLQMNSLKPEDTAVYYCAALPASVRRPGWHDYWGQGTQVTVSS | high polyreactivity |
| QVQLVESGGGLVQAGGSLRLSCAASGRTFRDYAMGWYRQAPGKERELVAAINWSGGTTSYADSVKGRFTISRDNAKNTVYLQMNSLKPEDTAVYYCAVPYLYKYSRYDYWGQGTQVTVSS | high polyreactivity |
| QVQLVESGGGLVQAGGSLRLSCAASGRTFRDYVMGWYRQAPGKERELVAVISYRGSTYYADSVKGRFTISRDNAKNTVYLLMNSLKPEDTAVYYCAARFSLEGGYYWGQGTQVTVSS | low polyreactivity |
| QVQLVESGGGLVQAGGSLRLSCAASGRTFRFYAMGWNRQAPGKERELVAAINWTGGSTYYADSVKGRFTISRDNAKNTVYLQMNSLKPEDTAVYYCAKVQDYRFEYWGQGTQVTVSS | high polyreactivity |
| QVQLVESGGGLVQAGGSLRLSCAASGRTFRFYAMGWYRQAPGKERELVATIRSGASTYYADSVKGRFTISRDNAKNTVYLQMNSLKPEDTAVYYCAAGLYFPYVSVIVFRSYDYWGQGTQVTVSS | high polyreactivity |
| QVQLVESGGGLVQAGGSLRLSCAASGRTFRFYTMGWYRQAPGKERELVADISWTSGRTYYADSVKGRFTISRDNAKNTVYLQMNSLKPEDTAVYYCAAYFFSRYSLYDYWGQGTQVTVSS | high polyreactivity |
| QVQLVESGGGLVQAGGSLRLSCAASGRTFRFYVMGWYRQAPGKERELVAVIRYRGGSTYYADSVKGRFTISRDNAKNTVYLHMNSLTPEDTAVYYCNADFLLAGNEYDYWGQGTQVTVSS | high polyreactivity |
| QVQLVESGGGLVQAGGSLRLSCAASGRTFRGNAMGWYRQAPGKERELVAAISRSGGTTYYADSVKGRFTISRDNAKNTVYLQMNSLKPEDTAVYYCNRGWATWHGPDDYWGQGTQVTVSS | high polyreactivity |
| QVQLVESGGGLVQAGGSLRLSCAASGRTFRGYALGWYRQAPGKERELVAAISGGTTNYADSVKGRFTISRDNAKNTVYLQMNSLKPVDTAVYYCAAAQRQYWRYRLGYEYGSWGQGTQVTVSS | low polyreactivity |

| Sequence | polyreactivity (PSR sort gate) |
| --- | --- |
| QVQLVESGGGLVQAGGSLRLSCAASGRTFRGYAMGWYRQAPGKERELVAAITSGGSTNYADSVKGRFTISRDNAKNTVYLQMNSLKPEDTAVYYCNRDTSKYGLWRYIYDYWGQGTQVTVSS | low polyreactivity |
| QVQLVESGGGLVQAGGSLRLSCAASGRTFRHNAMGWYRQAPGKERELVATINRGGNTYYADSVKGRFTISRDNAKNTVYLQMNSLKPEDTAVYYCAARRSFLFDEGNYWGQGTQVTVSS | low polyreactivity |
| QVQLVESGGGLVQAGGSLRLSCAASGRTFRIYATGWYRQAPGKERELVAAITRGGSTYYADSVKGRFTISRDNAKNTVYLQMNSLKPEDTAVYYCNAAPYYWGYDYWGQGTQVTVSS | high polyreactivity |
| QVQLVESGGGLVQAGGSLRLSCAASGRTFRKNVMGWYRQAPGKEREFVASISSSGSSTYYADSVKGRFTISRDYAKNTVYLQMNSLKPEDTAVYYCAARSVYATKRKYDYWGQGTQVTVSS | high polyreactivity |
| QVQLVESGGGLVQAGGSLRLSCAASGRTFRKYAMGWYRPAPGKERELVAAISWSGGSTRYADYVKGRFTISRDNEKNTVYLQMNSLKPEDTAVYYCNAVRRYRSTHPSYHTFNYWGQGTQVTVSS | high polyreactivity |
| QVQLVESGGGLVQAGGSLRLSCAASGRTFRLNAMGWYRQAPGKERELVAGIRVRAGTTYYADSVKGRFTLSRDNAKNTVYLQMNSLKPEDTAVYYCAAESYSRSRKYDYWGQGTQVTVSS | high polyreactivity |
| QVQLVESGGGLVQAGGSLRLSCAASGRTFRLYAMGWSRQAPGKERELVAAITRGGRTNYADSVKGRFTISRDNAKTTVYLQMTSLKPEDTAVYYCAARYVERHTDYYYWGQGTQVTVSS | low polyreactivity |
| QVQLVESGGGLVQAGGSLRLSCAASGRTFRLYAMGWYRQAPGKERELVAAISGSGGSTYYADSVKGRFTISRDNAKNTVYLQMNSLKPEDTAVYYCATAVHTAILNYWGQGTQVTVSS | low polyreactivity |
| QVQLVESGGGLVQAGGSLRLSCAASGRTFRNYAMGWYRPAPGKERELDAGITDSGGSTFYADSVKGRFTISRDNAKNTVYLQMNSLKPADTAVYYCAAVYVPYYWLGRSRGLDYWGQGTQVTVSS | high polyreactivity |
| QVQLVESGGGLVQAGGSLRLSCAASGRTFRNYAMGWYRQAPGKERELVAAINSGGSTNYADSVKGRFTISRDNAKNTVYLQMNSLKPEDTAVYYCAKRRTYPGKGRFNYWGQGTQVTVSS | low polyreactivity |
| QVQLVESGGGLVQAGGSLRLSCAASGRTFRPNAMRWYRQAPGKERELVASITRRGGTTYYADSVKGRFTISRDNAKNTVYLQMNSLKPEDTAVYYCNAPPGYSSTRNGYWGQGTQVTVSS | high polyreactivity |
| QVQLVESGGGLVQAGGSLRLSCAASGRTFRPYAMGWYRQAPGKERELVAAIRGSTGSTYADSVKGRFTISRDNAKNTVYLQMNSLKPEDTAVYSCATYRYYSGLGGGYWGQGTQVTVSS | high polyreactivity |
| QVQLVESGGGLVQAGGSLRLSCAASGRTFRPYAMGWYRQAPGKERELVAAISYRGGITNYADSVKGRFTISRDNAKNTVYLQMNSLKPEDTAVYYCNRYAIWVSRYSDLDYWGQGTQVTVSS | low polyreactivity |
| QVQLVESGGGLVQAGGSLRLSCAASGRTFRQYAMGWYRQAPGKERELVAAIRTNGGRTYYADSVKGRFTISRDNAKNTVYLQMNSLKPEDTAVYYCAVYAVVQGVLFDYWGQGTQVTVSS | high polyreactivity |
| QVQLVESGGGLVQAGGSLRLSCAASGRTFRQYAMGWYRQAPGKERELVARIRWRGGTTYYADSVKGRFTISRDNAKNTVYLQMISLKPEDTAVYYCAADKYGTEYDYWGQGTQVTVSS | high polyreactivity |
| QVQLVESGGGLVQAGGSLRLSCAASGRTFRRYAIGWYRQAPGKERELVATISSGGSTNYADSVKGRFTISRDNAKNTVYLQMNSLKPEDTAVYYCATPQTRTYDYWGQGTQGTVSS | high polyreactivity |
| QVQLVESGGGLVQAGGSLRLSCAASGRTFRRYAMGWYRQAPGKERELVAAISRGANTNYADSVKGRFTISRDNAKNTVYLQMNSLKPEDTAVYYCNAKQAGYYFAFGYWGQGTQVTVSS | high polyreactivity |
| QVQLVESGGGLVQAGGSLRLSCAASGRTFRRYAMGWYRQAPGKERELVAAITRGTRTNYADSVKGRFTISRDNAKNTVYLQMNSLKPEDTAVYYCNARRFLYSGGAYQFYYWGQGTQVTVSS | low polyreactivity |
| QVQLVESGGGLVQAGGSLRLSCAASGRTFRRYAMGWYRQAPGKERELVAAITSGGSTNYADSVKGRFTISRDNAKNNVYLQMNSLKPEDTAVYYCNARYFRGYDYWGQGTQVTVSS | high polyreactivity |
| QVQLVESGGGLVQAGGSLRLSCAASGRTFRRYAMGWYRQAPGKERELVAASSRGANTNYADSVKGRFTISRDNAKNTVYLQMNSLKPEDTSVYYGNAYGIDTGDYWGQGTKVTVSS | high polyreactivity |
| QVQLVESGGGLVQAGGSLRLSCAASGRTFRRYTMGWYRQAPGKERELVATISWSGGTTYADSVKGRFTISRDNAKNTVYLQMNSLKPEDTAVYFCAAVSYVYRYYWGQGTQVTVSS | low polyreactivity |
